# Biological target: full-length mouse IGF1R (MmIGF1R), residues 1–1262, Y951A, D1107N (mouse) (UniProt Q60751)
# Assay: cryo-EM structure; purified MmIGF1R and HsIGF1 mixed at molar ratio 1:2, 1 h at 4 °C, complex purified by SEC in 20 mM Hepes-Na pH 7.4, 200 mM NaCl, 0.03% DDM; 4.3 Å
# full-length mouse IGF1R (MmIGF1R), residues 1–1262, Y951A, D1107N (mouse), sequence (Q60751 31-1292 Y981A/D1137N): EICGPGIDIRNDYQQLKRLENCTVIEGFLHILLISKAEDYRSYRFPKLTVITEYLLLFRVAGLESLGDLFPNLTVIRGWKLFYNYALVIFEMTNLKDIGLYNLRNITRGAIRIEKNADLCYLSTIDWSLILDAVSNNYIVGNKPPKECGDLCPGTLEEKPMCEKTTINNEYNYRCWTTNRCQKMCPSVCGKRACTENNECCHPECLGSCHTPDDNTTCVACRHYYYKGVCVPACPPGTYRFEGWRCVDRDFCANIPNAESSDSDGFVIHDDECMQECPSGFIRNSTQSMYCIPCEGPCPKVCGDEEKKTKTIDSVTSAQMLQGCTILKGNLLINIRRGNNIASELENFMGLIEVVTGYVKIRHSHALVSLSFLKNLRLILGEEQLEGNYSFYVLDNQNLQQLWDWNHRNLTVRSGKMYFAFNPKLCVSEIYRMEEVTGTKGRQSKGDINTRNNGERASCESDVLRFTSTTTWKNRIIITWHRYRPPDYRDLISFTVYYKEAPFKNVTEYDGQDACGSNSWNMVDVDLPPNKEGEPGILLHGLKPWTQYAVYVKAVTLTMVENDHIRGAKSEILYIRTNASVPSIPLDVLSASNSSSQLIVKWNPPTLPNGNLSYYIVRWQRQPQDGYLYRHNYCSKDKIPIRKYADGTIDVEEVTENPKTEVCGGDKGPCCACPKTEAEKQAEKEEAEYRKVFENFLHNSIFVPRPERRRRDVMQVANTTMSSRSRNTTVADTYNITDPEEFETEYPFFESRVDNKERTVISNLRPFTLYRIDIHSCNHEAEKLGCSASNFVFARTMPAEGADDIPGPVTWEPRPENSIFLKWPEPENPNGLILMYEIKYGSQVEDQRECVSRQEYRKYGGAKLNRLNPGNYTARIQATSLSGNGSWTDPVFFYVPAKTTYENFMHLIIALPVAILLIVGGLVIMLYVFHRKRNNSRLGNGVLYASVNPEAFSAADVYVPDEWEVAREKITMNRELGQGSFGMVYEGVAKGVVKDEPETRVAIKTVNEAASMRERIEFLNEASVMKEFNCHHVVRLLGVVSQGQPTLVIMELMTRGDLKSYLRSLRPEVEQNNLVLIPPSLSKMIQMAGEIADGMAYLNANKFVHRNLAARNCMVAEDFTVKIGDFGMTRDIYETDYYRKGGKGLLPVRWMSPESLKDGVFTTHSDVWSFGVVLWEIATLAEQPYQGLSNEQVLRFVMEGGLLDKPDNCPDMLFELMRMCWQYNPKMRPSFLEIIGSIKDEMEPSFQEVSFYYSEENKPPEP
substance,measurement,value
"human IGF1 (HsIGF1), mature, residues 49–118 (ligand)",stoichiometry N (IGF1 per IGF1R dimer),1

# From PMC6783537
